Results taken from the RNAGym collection of RNA variant scans (doi:10.7554/elife.80360).

B1: CPEB3 Ribozyme (parent)
chain: GGGGGCCACAGCAGAAGCGUUCACGUCGCGGCCCCUGUCAGAUUCUGGUGAAUCUGCGAAUUCUGCUGU

Variants of: B1
Assay: self-cleavage, relative activity (ratio to wild type); higher = more cleavage; co-transcriptional

Variant | self-cleavage
GGCGGCCACAGCAGAAGCGUUCACGUCGCGGCCCCUGUCAGAUUCUGGUGAAUCUGCGAAUUCUGAUGU [G3C C66A] | 0.0406
GGCGGCCACAGCAGAAGCGUUCACGUCGCGGCCCCUGUCAGAUUCUGGUGAAUCUGCGAAUUCUGGUGU [G3C C66G] | 0.0391
GGCGGCCACAGCAUAAGCGUUCACGUCGCGGCCCCUGUCAGAUUCUGGUGAAUCUGCGAAUUCUGCUGU [G3C G14U] | 0.0909
GGCGGCCACAGCAAAAGCGUUCACGUCGCGGCCCCUGUCAGAUUCUGGUGAAUCUGCGAAUUCUGCUGU [G3C G14A] | 0.0364
GGCGGCCACAGCACAAGCGUUCACGUCGCGGCCCCUGUCAGAUUCUGGUGAAUCUGCGAAUUCUGCUGU [G3C G14C] | 0.0467
GGCGGCCACAGCAGAAGCGUUCACGUCGCGGCCCCUGUCAGAAUCUGGUGAAUCUGCGAAUUCUGCUGU [G3C U43A] | 0.0425
GGCGGCCACAGCAGAAGCGUUCACGUCGCGGCCCCUGUCAGAGUCUGGUGAAUCUGCGAAUUCUGCUGU [G3C U43G] | 0.104
GGCGGCCACAGCAGAAGCGUUCACGUCGCGGCCCCUGUCAGAUUCUGGUGAAUCUGUGAAUUCUGCUGU [G3C C57U] | 0.015
GGCGGCCACAGCAGAAGCGUUCACGUCGCGGCCCCUGUCAGAUUCUGGUGAAUCUGGGAAUUCUGCUGU [G3C C57G] | 0.0873
GGCGGCCACAGCAGAAGCGUUCACGUCGCGGCCCCUGUCAGAUUCUGGUGAAUCUGAGAAUUCUGCUGU [G3C C57A] | 0.0768
GGCGGCCACACCAGAAGCGUUCACGUCGCGGCCCCUGUCAGAUUCUGGUGAAUCUGCGAAUUCUGCUGU [G3C G11C] | 0.0692
GGCGGCCACAUCAGAAGCGUUCACGUCGCGGCCCCUGUCAGAUUCUGGUGAAUCUGCGAAUUCUGCUGU [G3C G11U] | 0.11
GGCGGCCACAACAGAAGCGUUCACGUCGCGGCCCCUGUCAGAUUCUGGUGAAUCUGCGAAUUCUGCUGU [G3C G11A] | 0.0327
GGCGGCCACAGCAGAAGCGUUCACGUCGCGGCCCCUGGCAGAUUCUGGUGAAUCUGCGAAUUCUGCUGU [G3C U38G] | 0.0344
GGCGGCCACAGCAGAAGCGUUCACGUCGCGGCCCCUGACAGAUUCUGGUGAAUCUGCGAAUUCUGCUGU [G3C U38A] | 0.1
GGCGGCCACAGCAGAAGCGUUCACGUCGCGGCCCCGGUCAGAUUCUGGUGAAUCUGCGAAUUCUGCUGU [G3C U36G] | 0.329
GGCGGCCACAGCAGAAGCGUUCACGUCGCGGCCCCAGUCAGAUUCUGGUGAAUCUGCGAAUUCUGCUGU [G3C U36A] | 0.0318
GGCGGCCACAGCAGAAGCGUUCACGUCGCGGCCCCCGUCAGAUUCUGGUGAAUCUGCGAAUUCUGCUGU [G3C U36C] | 0.0612
GGCGGCCACAGCAGAAGCGUCCACGUCGCGGCCCCUGUCAGAUUCUGGUGAAUCUGCGAAUUCUGCUGU [G3C U21C] | 0.058
GGCGGCCACAGCAGAAGCGUGCACGUCGCGGCCCCUGUCAGAUUCUGGUGAAUCUGCGAAUUCUGCUGU [G3C U21G] | 0
GGCGGCCACAGCAGAAGCGUACACGUCGCGGCCCCUGUCAGAUUCUGGUGAAUCUGCGAAUUCUGCUGU [G3C U21A] | 0.072
GGCGGCCACAGCAGAAGCGUUCACGUCGCGGCCCCUGUCAGAUUCUGGUGAAUCUGCGAAUUAUGCUGU [G3C C63A] | 0.0751
GGCGGCCACAGCAGAAGCGUUCACGUCGCGGCCCCUGUCAGAUUCUGUUGAAUCUGCGAAUUCUGCUGU [G3C G48U] | 0.16
GGCGGCCACAGCAGAAGCGUUCACGUCGCGGCCCCUGUCAGAUUCUGCUGAAUCUGCGAAUUCUGCUGU [G3C G48C] | 0.105
GGCGGCCACAGCAGAAUCGUUCACGUCGCGGCCCCUGUCAGAUUCUGGUGAAUCUGCGAAUUCUGCUGU [G3C G17U] | 0.0348
GGCGGCCACAGCAGAACCGUUCACGUCGCGGCCCCUGUCAGAUUCUGGUGAAUCUGCGAAUUCUGCUGU [G3C G17C] | 0.0303

Variant | self-cleavage
GGCGGCCACAGCAGAAACGUUCACGUCGCGGCCCCUGUCAGAUUCUGGUGAAUCUGCGAAUUCUGCUGU [G3C G17A] | 0.0395
GGCGGCCACAGCAGAAGCGUUCACAUCGCGGCCCCUGUCAGAUUCUGGUGAAUCUGCGAAUUCUGCUGU [G3C G25A] | 0.0214
GGCGGCCACAGCAGAAGCGUUCACCUCGCGGCCCCUGUCAGAUUCUGGUGAAUCUGCGAAUUCUGCUGU [G3C G25C] | 0.0602
GGCGGCCACAGCAGAAGCGUUCACUUCGCGGCCCCUGUCAGAUUCUGGUGAAUCUGCGAAUUCUGCUGU [G3C G25U] | 0.047
GGCGGCCACAGCAGAAGCGUUCACGUCGCGGCCCCUGUCAGAUUCUGGUGAAUCUGCGAAUUCAGCUGU [G3C U64A] | 0.0618
GGCGGCCACAGCAGAAGCGUUCACGUCGCGCCCCCUGUCAGAUUCUGGUGAAUCUGCGAAUUCUGCUGU [G3C G31C] | 0.0554
GGCGGCCACAGCAGAAGCGAUCACGUCGCGGCCCCUGUCAGAUUCUGGUGAAUCUGCGAAUUCUGCUGU [G3C U20A] | 0.0845
GGCGGCCACAGCAGAAGCGGUCACGUCGCGGCCCCUGUCAGAUUCUGGUGAAUCUGCGAAUUCUGCUGU [G3C U20G] | 0.0823
GGCGGCCACAGCAGAAGCGUUCACGUCGCGGCCCCUGUCAGAUGCUGGUGAAUCUGCGAAUUCUGCUGU [G3C U44G] | 0.054
GGCGGCCACAGCAGAAGCGUUCACGUCGCGGCCCCUGUCAGAUACUGGUGAAUCUGCGAAUUCUGCUGU [G3C U44A] | 0.0725
GGCGGCCACAGCAGAAGCGUUCACGUCGCGGCCCCUGUCAGAUUCUGGUGAAGCUGCGAAUUCUGCUGU [G3C U53G] | 0.0664
GGCGGCCACAGCAGAAGCGUUCACGUCGCGGCCCCUGUCAGAUUCUGGUGAACCUGCGAAUUCUGCUGU [G3C U53C] | 0.0464
GGCGGCCACAGCAGAAGCGUUCACGUCGCGGCCCCUGUCAGAUUCUGGUGAAUCGGCGAAUUCUGCUGU [G3C U55G] | 0.0373
GGCGGCCACAGCAGAAGCGUUCACGUCGCGGCCCCUGUCAGAUUCUGGUGAAUCAGCGAAUUCUGCUGU [G3C U55A] | 0.0482
GGCGGCCACAGCAGAAGCGUUCACGUCGCGGCCCCUGUCAGAUUCUGGUGAAUCCGCGAAUUCUGCUGU [G3C U55C] | 0.0498
GGCGGCCACAGCAGAAGCGUUCACGUCGCGGCCCCUGUCAUAUUCUGGUGAAUCUGCGAAUUCUGCUGU [G3C G41U] | 0.0159
GGCGGCCACAGCAGAAGCGUUCACGUCGCGGCCCCUGUCAAAUUCUGGUGAAUCUGCGAAUUCUGCUGU [G3C G41A] | 0.0418
GGCGGCCACAGCAGAAGCGUUCACGUCGCGGCCCCUGUCAGAUUCUGGUGAAUCUUCGAAUUCUGCUGU [G3C G56U] | 0.033
GGCGGCCACAGCAGAAGCGUUCACGUCGCGGCCCCUGUCAGAUUCUGGUGAAUCUGCUAAUUCUGCUGU [G3C G58U] | 0.216
GGCGGCCACAGCAGAAGCGUUCACGUCGCGGCCCCUGUCAGAUUCUGGUGAAUCUGCAAAUUCUGCUGU [G3C G58A] | 0.0258
GGCGGCCACAGCAGAAGCGUUCACGUCGCGGCCCCUCUCAGAUUCUGGUGAAUCUGCGAAUUCUGCUGU [G3C G37C] | 0.0266
GGCGGCCACAGCAGAAGCGUUCACGUCGCGGCCCCUUUCAGAUUCUGGUGAAUCUGCGAAUUCUGCUGU [G3C G37U] | 0.0466
GGCGGCCACAGCAGAAGCGUUCACGUCGCGGCCCCUAUCAGAUUCUGGUGAAUCUGCGAAUUCUGCUGU [G3C G37A] | 0.0325
GGCGGCCACAGCAGAAGCGUUCACGUCGCGGCCCCUGUCAGAUUCUGGUGAAUCUGCGAAUUCUCCUGU [G3C G65C] | 0.0156
GGCGGCCACAGCAGAAGCGUUCACGUCGCGGCCCCUGUCAGAUUCUGGUGAAUCUGCGAAUUCUUCUGU [G3C G65U] | 0.0451
GGCGGCCACAGCAGAAGCGUUCACGUCGCGGCCCCUGUCAGAUUCAGGUGAAUCUGCGAAUUCUGCUGU [G3C U46A] | 0.113

Variant | self-cleavage
GGCGGCCACAGCAGAAGCGUUCACGUCGCGGCCCCUGUCAGAUUCCGGUGAAUCUGCGAAUUCUGCUGU [G3C U46C] | 0.126
GGCGGCCACAGCAGAAGCGUUCACGUCGCGGCCCCUGUCAGAUUCUGGUGAAUGUGCGAAUUCUGCUGU [G3C C54G] | 0.0518
GGCGUCCACAGCAGAAGCGUUCACGUCGCGGCCCCUGUCAGAUUCUGGUGAAUCUGCGAAUUCUGCUGU [G3C G5U] | 0.00743
GGCGACCACAGCAGAAGCGUUCACGUCGCGGCCCCUGUCAGAUUCUGGUGAAUCUGCGAAUUCUGCUGU [G3C G5A] | 0.0417
GGCGGCCACAGCAGAAGCGUUCACGUCGCCGCCCCUGUCAGAUUCUGGUGAAUCUGCGAAUUCUGCUGU [G3C G30C] | 0.0279
GGCGGCCACAGCAGAAGCGUUCACGUCGCAGCCCCUGUCAGAUUCUGGUGAAUCUGCGAAUUCUGCUGU [G3C G30A] | 0.0737
GGCGGCCACAGCAGAAGCGUUCACGUCGCGGCCCCUGUCAGAUUCUGGUGAAUCUGCGAAGUCUGCUGU [G3C U61G] | 0.0927
GGCGGCCACAGCAGAAGCGUUCACGUCCCGGCCCCUGUCAGAUUCUGGUGAAUCUGCGAAUUCUGCUGU [G3C G28C] | 0.0181
GGCGGCCACAGCAGAAGCGUUCACGUCACGGCCCCUGUCAGAUUCUGGUGAAUCUGCGAAUUCUGCUGU [G3C G28A] | 0.0239
GGCGGCCACAGCAGAAGCGUUCACGUCGCGGCCCCUGUCAGAUUCUGGUGAAUCUGCGAAUUCUGCUCU [G3C G68C] | 0.432
GGCGGCCACAGCAGAAGCGUUCACGUCGCGGCCCCUGUCAGAUUCUGGUGAAUCUGCGAAUUCUGCUAU [G3C G68A] | 0.4
GGCGGCCACAGCAGAAGCGUUCACGUCGCGGCCCCUGUCAGAUUCUGGCGAAUCUGCGAAUUCUGCUGU [G3C U49C] | 0.149
GGCGGCCACAGCAGAAGCGUUCACGUCGCGGCCCCUGUCAGAUUCUGGGGAAUCUGCGAAUUCUGCUGU [G3C U49G] | 0.039
GGCGGCCACAGCAGAAGCGUUCACGUCGCGGCCCCUGUCAGAUUCUCGUGAAUCUGCGAAUUCUGCUGU [G3C G47C] | 0.136
GGCGGCCACAGCAGAAGCGUUCACGUCGCGGCCCCUGUCAGAUUCUAGUGAAUCUGCGAAUUCUGCUGU [G3C G47A] | 0.264
GGCGGCCACAGCAGAAGCGUUCACGUCGCGGCCCCUGUCAGAUUCUUGUGAAUCUGCGAAUUCUGCUGU [G3C G47U] | 0.0876
GGCGGCCACAGCAGAAGCGUUCACGUCGCGGCCCCUGUCAGAUUCUGGUGAAUCUGCGAAUCCUGCUGU [G3C U62C] | 0.0572
GGCGGCCACAGCAGAAGCGUUCACGUCGCGGCCCCUGUCAGAUUCUGGUGAAUCUGCGAAUGCUGCUGU [G3C U62G] | 0.0946
GGCAGCCACAGCAGAAGCGUUCACGUCGCGGCCCCUGUCAGAUUCUGGUGAAUCUGCGAAUUCUGCUGU [G3C G4A] | 0.0691
GGCUGCCACAGCAGAAGCGUUCACGUCGCGGCCCCUGUCAGAUUCUGGUGAAUCUGCGAAUUCUGCUGU [G3C G4U] | 0.0461
GGCCGCCACAGCAGAAGCGUUCACGUCGCGGCCCCUGUCAGAUUCUGGUGAAUCUGCGAAUUCUGCUGU [G3C G4C] | 0.137
GGCGGCCACAGCAGAAGCAUUCACGUCGCGGCCCCUGUCAGAUUCUGGUGAAUCUGCGAAUUCUGCUGU [G3C G19A] | 0.0368
GGCGGCCACAGCAGAAGCCUUCACGUCGCGGCCCCUGUCAGAUUCUGGUGAAUCUGCGAAUUCUGCUGU [G3C G19C] | 0.0344
GGCGGCCACAGCAGAAGCGUUCACGGCGCGGCCCCUGUCAGAUUCUGGUGAAUCUGCGAAUUCUGCUGU [G3C U26G] | 0.0558
GGCGGCCACAGCAGAAGCGUUCACGCCGCGGCCCCUGUCAGAUUCUGGUGAAUCUGCGAAUUCUGCUGU [G3C U26C] | 0.0733
GGCGGCCACAGCAGAAGCGUUCACGUCGCGGCCCCUGUCAGAUUCUGGUAAAUCUGCGAAUUCUGCUGU [G3C G50A] | 0.0909
